From patent US20050079613A1, “Downregulation of cell surface glycoproteins by a family of human ubiquitin ligases” (Oregon Health & Science University, priority 2002, published 2005)
“Also recorded” adds a separate entry of the source.

Columns and labels:
HLA class I (MHC I) = assay: Surface expression of endogenous MHC I on transfected HeLa cells, flow cytometry; assay type: cell-based, human; details: HeLa cells transfected with MARCH plasmid and GFP, 24 h post-transfection
Protocol: (§1) Flow cytometry. Cells were removed from tissue culture dishes with 0.05% Trypsin-EDTA (Invitrogen), washed with ice-cold PBS, and incubated with appropriate antibody for 30 minutes at 4° C. The cells were washed with ice-cold PBS and either resuspended in ice-cold PBS or incubated with PE-conjugated anti-mouse secondary antibody (DAKO) and washed again before analysis with a BD Biosciences (San Jose, Calif.) FACScalibur flow cytometer.
(§2) The ability to downregulate MHC I is common to KSHV-K3, KSHV-K5, MHV68-K3 and MV-M153R (Coscoy and Ganem, 2000, supra; Guerin et al., 2002, supra; Ishido et al., 2000b supra; Stevenson et al., 2000, supra). Additional substrates are ICAM-1 and B7.2 (but not B7.1) for KSHV-K5, as well as CD95 and CD4 for M153R (Coscoy and Ganem, 2001, supra; Guerin et al., 2002, supra; Ishido et al., 2000a, supra; Mansouri et al., 2003, supra). Since only low copy numbers were detected in HeLa cells for transcripts corresponding to each of the MARCH-proteins (FIG. 7C, and data not shown), HeLa cells were transfected with expression plasmids for MARCH-I, II, III, IV, V and VIII. Surface expression of selected glycoproteins was monitored upon transfection. The following known substrates for viral K3-family members were tested: Fas (CD95) and HLA class I (MHC I), both of which are endogenously expressed in HeLa cells, as well as transfected HLA-A2.1 or CD4. […] Surface expression of the respective markers was analyzed by flow cytometry. GFP was used to identify transfected cells.
With regards to whether MHC I downregulation by MARCH-IV was only observed at very high expression levels, since the viral immune evasion genes seem to be dedicated to MHC I downregulation, MHC I expression was compared at different expression levels of MARCH-IV or KSHV-K5 by taking advantage of the tetracycline-regulatable system to partially express either protein (Gossen, M. and H. Bujard, Proc. Natl. Acad. Sci. USA 89:5547-5551, 1992). Tet-off HeLa cells were transfected with either MARCH-IV or with KSHV-K5 in the presence of increasing amounts of tetracycline to shut off transcription. […]

transferrin receptor = assay: Surface expression of transferrin receptor on transfected HeLa cells, flow cytometry; assay type: cell-based, human; details: HeLa cells transfected with MARCH plasmid and GFP, 24 h post-transfection
Protocol: as §1
Cells were transfected with appropriate plasmids as well as GFP to track transfection efficiency. […]
The ability to downregulate MHC I is common to KSHV-K3, KSHV-K5, MHV68-K3 and MV-M153R (Coscoy and Ganem, 2000, supra; Guerin et al., 2002, supra; Ishido et al., 2000b supra; Stevenson et al., 2000, supra). […] Since only low copy numbers were detected in HeLa cells for transcripts corresponding to each of the MARCH-proteins (FIG. 7C, and data not shown), HeLa cells were transfected with expression plasmids for MARCH-I, II, III, IV, V and VIII. Surface expression of selected glycoproteins was monitored upon transfection. […] Surface expression of the respective markers was analyzed by flow cytometry. […]

ubiquitin = assay: In vitro ubiquitination assay with GST-fused RING-CH (PHD) domains, E1, E2 panel, anti-ubiquitin immunoblot; assay type: biochemical; details: for ubiquitin ligase activity with UbCH5a: E2 = UbCH5a; for ubiquitin ligase activity with MmUbc6: E2 = murine MmUbc6
Protocol: Ubiquitination assay. UbCH2 and UbCH3 were obtained from Boston Biochem. (His)6-UbCH5a and GST fusion proteins were expressed in BL21-DE3 cells (Stratagene) and BL21 cells (Amersham), respectively, and purified as previously described (Boutell, C., S. Sadis and R. D. Everett, J. Virol. 76:841-850, 2002; Tiwari, S. and A. M. Weissman, J. Biol. Chem. 276:16193-16200, 2001). Purified E3 proteins were stored at 4° C., and E2 proteins were stored at −80° C. In vitro reaction mixtures (20 μl total) included: 50 nM rabbit E1 (Boston Biochem), 28 μM Ubiquitin, 5 mM ATP, 50 mM Tris-HCl pH 7.5, 50 mM NaCl, and 2 mM DTT. E2 enzymes were used at concentrations varying from 0.1 to 2.3 μM, and E3 concentrations ranged from 3 to 30 μM. After 90 minutes of incubation at 30° C., reactions were stopped by boiling in SDS sample buffer. Samples were electrophoresed through 12% polyacrylamide SDS gels and blotted using anti-ubiquitin mouse antibody, P4D1 (Santa Cruz Biotech).
In vitro reaction mixtures (20 μl total) included: 50 nM rabbit E1 (Boston Biochem), 28 μM Ubiquitin, 10 mM ATP, 50 mM Tris-HCl pH 7.5, 50 mM NaCl, and 2 mM DTT. E2 enzymes were used at concentrations varying from 0.7 to 2.3 μM, and E3 concentrations ranged from 3 to 25 μM. After 90 minutes of incubation at 30° C., reactions were stopped by addition of 4×reducing sample buffer. Samples were electrophoresed through 12% SDS gels and blotted using anti-ubiquitin mouse antibody (Santa Cruz Biotech).
To examine if the RING-CH domains of MARCH-I and MARCH-II would act as ubiquitin ligases in vitro, DNA fragments encoding the amino-terminal RING-CH-domain of both proteins were fused to Glutathione-S-transferase. The resulting constructs were sequence confirmed and expression of GST-MARCH protein verified by immunoblot. The GST-fusion protein was expressed and purified from E. coli cultures using Glutathione-columns. The ICP0-RING-domain was also purified, in parallel with the MARCH-I and MARCH-II constructs. A panel of E2 enzymes was either purchased from commercial sources or purified either by nickel-chelate chromatography or on glutathione columns. All E2-enzymes formed mercapto-ethanol-sensisitve complexes with ubiquitin thus showing ubiquitin conjugating activity. Purified ubiquitin and E1 was obtained from commercial sources.
To examine if the RING-CH domains of MARCH proteins act as ubiquitin ligases in vitro, a DNA fragment encoding the amino-terminal RING-CH-domains of MARCH-I, II, IV and VIII were fused to Glutathione-S-transferase (GST) for bacterial expression. The GST-fusion proteins were purified from E. coli cultures using Glutathione-sepharose-columns. Approximately thirty E2 proteins are found in the human genome compared to only one E1 enzyme (Pickart, 2001, supra). […] The specificity and selectivity of E3s with respect to E2s, however, is not well characterized. To cover a spectrum of E2s, a panel of E2 enzymes (Mansouri et al., 2003, supra) was acquired. The various E2 enzymes were incubated with or without the RING-CH-GST fusions in the presence of ubiquitin, ATP, E1. The formation of multiubiquitin-adducts was examined by immunoblotting with antibodies against ubiquitin.

HLA-A2.1 = assay: Surface expression of co-transfected HLA-A2.1 constructs on HeLa cells, flow cytometry; assay type: cell-based, human
Protocol: as §1, §2
The most likely targets for ubiquitination on transmembrane glycoproteins are lysines in the cytoplasmic tail. To examine the role of lysines for MHC I and CD4 downregulation by MARCH-IV, a panel of constructs derived from the human MHC I molecule HLA-A2.1 and a lysine-deleted version of CD4 (Mansouri et al., 2003, supra) were used. In addition to MARCH-IV, MARCH-VIII was included in this analysis since it reduced HLA-A2.1 surface expression (FIG. 10A). […] To rule out the possibility that these mutations changed the target molecules in such a way that they are no longer recognized by MARCH-IV or VIII, a lysine residue into a HA-tag at the carboxyterminal end of HLA-A2.1 was introduced.

[1] = system: Fas (CD95), MHC I, HLA-A2.1, CD4, transferrin receptor, B7.1; assay: Surface glycoprotein panel on transfected HeLa cells, flow cytometry; assay type: cell-based, human; details: HeLa cells transfected with MARCH plasmid
Protocol: as §1
The ability to downregulate MHC I is common to KSHV-K3, KSHV-K5, MHV68-K3 and MV-M153R (Coscoy and Ganem, 2000, supra; Guerin et al., 2002, supra; Ishido et al., 2000b supra; Stevenson et al., 2000, supra). Additional substrates are ICAM-1 and B7.2 (but not B7.1) for KSHV-K5, as well as CD95 and CD4 for M153R (Coscoy and Ganem, 2001, supra; Guerin et al., 2002, supra; Ishido et al., 2000a, supra; Mansouri et al., 2003, supra). Since only low copy numbers were detected in HeLa cells for transcripts corresponding to each of the MARCH-proteins (FIG. 7C, and data not shown), HeLa cells were transfected with expression plasmids for MARCH-I, II, III, IV, V and VIII. Surface expression of selected glycoproteins was monitored upon transfection. […] Surface expression of the respective markers was analyzed by flow cytometry. […]

Molecule	surface expression of MHC I (HLA class I (MHC I))	surface expression of transferrin receptor (TfR) (transferrin receptor)	ubiquitin ligase activity with UbCH5a (ubiquitin)	ubiquitin ligase activity with MmUbc6 (ubiquitin)	also measured
MARCH-I: human membrane-associated RING-CH transmembrane ubiquitin ligase, SEQ ID NOS:39 and 54; expressed by transfection or as GST-RING-CH domain (protein, listed as Homo sapiens) MTSSHVCCNFLNMWKKSKISTMYYLNQDAKLSNLFLQASSPTTGTAPRSQSRLSVCPSTQDICRICHCEGDEESPLITPCRCTGTLRFVHQSCLHQWIKSSDTRCCELCKYDFIMETKLKPLRKWEKLQMTTSERRKIFCSVTFHVIAITCVVWSLYVLIDRTAEEIKQGNDNGVLEWPFWTKLVVVAIGFTGGLVFMYVQCKVYVQLWRRLKAYNRVIFVQNCPDTAKKLEKNFSCNVNTDIKDAVVVPVPQTGANSLPSAEGGPPEVVSV	no effect	reduced the surface levels of transferring receptor; also recorded: Some reduction; also recorded: strong downregulation	more active	only active with MmUbc6	surface expression of MHC I (HLA class I (MHC I); listed as MARCH I): No significant MHC I downregulation; formation of high molecular weight ubiquitinated complexes with the E2 enzymes tested (ubiquitin; GST-RING-CH fusion, E2 panel overall): less active with most E2 enzymes tested
ICPO: purified RING domain (amino acids 1-241) of herpes simplex ICP0 as GST fusion, positive control (protein, left off: a dimerising Fc or GST, purified RING domain (amino acids 1-241) of herpes simplex ICP0 as GST fusion, positive control) MEPRPGASTRRPEGRPQREPAPDVWVFPCDRDLPDSSDSEAETEVGGRGDADHHDDDSASEADSTDTELFETGLLGPQGVDGGAVSGGSPPREEDPGSCGGAPPREDGGSDEGDVCAVCTDEIAPHLRCDTFPCMHRFCIPCMKTWMQLRNTCPLCNAKLVYLIVGVTPSGSFSTIPIVNDPQTRMEAEEAVRAGTAVDFIWTGNQRFAPRYLTLGGHTVRALSPTHPEPTTDEDDDDLDD	–	–	promoted the formation of high-molecular weight complexes	some activity	–
MARCH-VIII: human membrane-associated RING-CH ubiquitin ligase, SEQ ID NOS:53 and 61 (protein, listed as Homo sapiens) MSMPLHQISAIPSQDAISARVYRSKTKEKEREEQNEKTLGHFMSHSSNISKAGSPPSASAPAPVSSFSRTSITPSSQDICRICHCEGDDESPLITPCHCTGSLHFVHQACLQQWIKSSDTRCCELCKYEFIMETKLKPLRKWEKLQMTSSERRKIMCSVTFHVIAITCVVWSLYVLIDRTAEEIKQGQATGILEWPFWTKLVVVAIGFTGGLLFMYVQCKVYVQLWKRLKAYNRVIYVQNCPETSKKNIFEKSPLTEPNFENKHGHGICHSDTNSSCCTEPEDTGAEIIHV	reduced the surface expression of MHC I; also recorded: down regulated	almost complete elimination; also recorded: down regulated	–	–	downregulation of HLA-A2.1 with a lysine re-introduced into the C-terminal HA-tag (HLA-A2.1; HeLa cells): restored downregulation; surface expression of transfected HLA-A2.1 (HLA-A2.1; HeLa cells co-transfected with HLA-A2.1 and MARCH plasmid): reduced; downregulation of HLA-A2.1 with lysines removed from the tail (HLA-A2.1; HeLa cells, lysine-less HLA-A2.1 construct): resistant
MARCH-III: human membrane-associated RING-CH ubiquitin ligase, SEQ ID NOS:43 and 56 (protein, listed as Homo sapiens) MTTSRCSHLPEVLPDCTSSAAPVVKTVEDCGSLVNGQPQYVMQVSAKDGQLLSTVVRTLATQSPFNDRPMCRICHEGSSQEDLLSPCECTGTLGTIHRSCLEHWLSSSNTSYCELCHFRFAVERKPRPLVEWLRNPGPQHEKRTLFGDMVCFLFITPLATISGWLCLRGAVDHLHFSSRLEAVGLIALTVALFTIYLFWTLVSFRYHCRLYNEWRRTNQRVILLIPKSVNVPSNQPSLLGLHSVKRNSKETVV	–	–	–	–	reduction in surface levels of any of the glycoproteins of the panel [1]: No reduction in surface levels
full-length MARCH-IV: MARCH-IV full length, which contains an N-terminal extension of 63 amino acids (protein) WYCYGLCAPAPQMLRHQGLLKCRCRMLFNDLKVFLLRRPPQAPLPMHGDPQPPGLAANNTLPALGAGGWAGWRGPREVVGREPPPVPPPPPLPPSSVEDDWGGPATEPPASLLSSASSDDFCKEKTEDRYSLGSSLDSGMRTPLCRICFQGPEQGELLSPCRCDGSVKCTHQPCLIKWISERGCWSCELCYYKYHVIAISTKNPLQWQAISLTVIEKVQVAAAILGSLFLIASISWLIWSTFSPSARWQRQDLLFQICYGMYGFMDVVCIGLIIHEGPSVYRIFKRWQAVNQQWKVLNYDKTKDLEDQKAGGRTNPRTSSSTQANIPSSEEETAGTPAPEQGPAQAAGHPSGPLSHHHCAYTILHILSHLRPHEQRSPPGSSRELVMRVTTV	downregulates MHC I	–	–	–	–
